In paper PMC3326528 one finds Km and kcat data, which are given here for four proteins.

Broadly, the Km is the concentration of substrate that gives half-maximal velocity. A word on the kcat: it is the maximal rate divided by the concentration of active sites.

Residue numbers refer to the chain shown, from its start. Numbers in names are those of the source.

B1: T80A (Streptantibioticus cattleyicolor; T80A) (protein)
chain: AANSTRRPIIAFMSDLGTTDDSVAQCKGLMYSICPDVTVVDVCHSMTPWDVEEGARYIVDLPRFFPEGTVFATTTYPAAGTTTRSVAVRIKQAAKGGARGQWAGSGAGFERAEGSYIYIAPNNGLLTTVLEEHGYLEAYEVTSPKVIPEQPEPTFYSREMVAIPSAHLAAGFPLSEVGRPLEDHEIVRFNRPAVEQDGEALVGVVSAIDHPFGNVWTNIHRTDLEKAGIGYGARLRLTLDGVLPFEAPLTPTFADAGEIGNIAIYLNSRGYLSIARNAASLAYPYHLKEGMSARVEAR
B2: S158G (Streptantibioticus cattleyicolor; S158G) (protein)
chain: B1 chain with A79T, S157G
B3: T80S (Streptantibioticus cattleyicolor; T80S) (protein)
chain: B1 chain with A79S
B4: S158A (Streptantibioticus cattleyicolor; S158A) (protein)
chain: B1 chain with A79T, S157A

Substrate in this series: C[S+](CC[C@H](N)C(=O)[O-])C[C@H]1O[C@@H](n2cnc3c(N)ncnc32)[C@H](O)[C@@H]1O
Put plainly: Discontinuous HPLC assay of 5′-FDA formation with SAM varied at 200 mM fluoride. In kind it is biochemical. The conditions noted are these: pH 7.8; 25.0 °C.
For the protein B1, the Km was 3.0 ± 0.4 µM and the catalytic constant (kcat) worked out at 8.33e-05 ± 3.33e-06 s⁻¹.
Taken in the same sequence, the figures for B2 were 0.8 ± 0.5 µM and 1.17e-05 ± 5e-07 s⁻¹.
As to B3, the Km was 4.7 ± 0.4 µM and the kcat amounted to 0.001 ± 3.33e-05 s⁻¹.
Regarding B4, the Km worked out at 9.2 ± 1.2 µM and the turnover number (kcat) came out at 0.00015 ± 1e-05 s⁻¹.
